Biological target: SspA of F. tularensis SCHU S4 fused to the Zif protein (F. tularensis SCHU S4)
Assay: two-hybrid

## MglA of F. tularensis SCHU S4 fused to the ω subunit of E. coli RNA polymerase (natural protein)
  β-galactosidase activity in strain AW23: 2400 AU
  β-galactosidase activity in strain AW24: 26000 AU
